Test results reported in the domain aggregation screens of Martell et al. (2025).

assay: soluble fraction after stress (log2 fold change); higher = more stays soluble; pooled small domains, quantitative proteomics; details: stress: 75 degC
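Further: 20 min heating vs room temperature control held 20 min.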

| Sequence | soluble fraction (log2) |
| --- | --- |
| HMAIGSRLKVTTDATNLNIRSTPSTEGDIVGKAAHHEIVTLVEKTDDSWWKIKTNDGEEGYAYAQYLSPV | -0.031 |
| HMAIIQSNNIFKSQKEIVDEILVELDIPKDKWNFFHMLISSGYKDEFDTNRIYEIIQTNYNMMDR | -0.298 |
| HMAILDTALDVLSMNLKDNYTSFQILRQAAIAGKIAFNLTEKNPLGGVIEVELTGDDLETWIEAATW | 0.183 |
| HMAIMISINAKGEVAWNDQIISLDDLAQRFNAAGQQAQKPTVQLRADKESRYDMVAQVMSRASEAGLSDIA | -0.83 |
| HMAIRLIKASREFNVGISTIVEFLEKKGHAIDSDPNSKIPDELYQLIEKEFQTEGSVKKAAKQI | -1.81 |
| HMAITLEVAKKHLEMWLEAESEVAINQSYTIGGKSFTRANLAEIRKQIEYWSNKVAELENLA | -1.04 |
| HMAITYETKVISGVNLRSAPSTSASVYQLIPKGENIHVVQKVNDYWLKVQTKDGKTGYISASSKYTNYIG | -2.7 |
| HMAIWAVFYKNEPFNLKSFNSLTSYPGPKYKKTSFSNPGHALNLAKKLNLTFGTEDFQVVKLTQGTIV | -2.69 |
| HMAKIEVENLEETILENLKANNGFMPYNDKTSPEEIYEVFHVSKKHFKNSLGGLMKKGLIFQNEKGTKL | -0.193 |
| HMAKITERVMGSAALRDYDPNYLPDEVLKALDGYPPFDGYVYKDGILYARVKIGDTFFIIPPI | -2.53 |
| HMAKKDVESTLGGRLRVARVRAGLTQVELARMLGMNSVSLSNVEGGRRGLSMKQLVRVAKILEVPVAYLLG | -2.36 |
| HMAKMPSIIIMKDGVIRTSELEQIERDENWLNEEMKKQHIDNPEDVFLAEFWDGKVNFILQDGKIK | -0.0894 |
| HMAKNDSGLNNHTFNTIRDALQKALTDGPQEAKKLTENLPFPADKIITVIRYLADHDEHFSLEDGIISLT | 0.609 |
| HMAKNIEVPNLVGSTISVARNDLKQLGLHVIVRDSVWSEDKKIDTILEQFPEPGKKLKPEGVVQVVVSI | -0.909 |
| HMAKNSVLTIELWNSTAFKWRKDTEPYSESMSVDFNRSVRLTDGISIMFSKFGFVPGIQYLIPLQT | -0.534 |
| HMAKQQTTTTAHVVTTGETLYSIAQKNGISVEELKKSNNITSDKLRPGQTLHITKVSKTSSTAK | 0.87 |
| HMAKRPRFEDVIKEINTEIQKRKGKWNLTILSWMDFDDVAQVIRIHIYRKWHLYDPSKPLGPWLNR | -0.339 |
| HMAKSETAKIKATPYGWLRVRDTPSLNGAEIARVNSGDEYKVLEKETGWIKIKVSDTVEGWVSDAYIELS | -0.21 |
| HMAKSKYETHVLPNLDKIIKWAKAGATAKEIAANLHIAYSTFRKYLDEGQEGDERYAALSAAFAQA | -0.0762 |
| HMALDLNEDEKLLVELIEKAGGTAGLGELKEASGLSGKKWDKTTKNLSKEGLIKVEKNESGLWVHLT | 0.0861 |
| HMALDLPVKRVKGKEYYYYKVKKGESLYGISKHLGLPLDSIVKSNPSVADGVRKGDMLLFPLEEYT | -0.702 |
| HMALKQADFDFIRQMIQQRAAIVLDDNKHYFVESRLGPVVEETGSKSLDQLIDQLRSSSNSLLQQKVTEAI | -0.372 |
| HMALLSDEERIATVFAARLGGYSHQEIYKLLQDRFGPSLPAAYSEKSVLTDLQTALSQVPSL | -0.814 |
| HMALPEHIEPFLRGLGQALAEGDSYEDVQERLLRAYPYLDSTEFQTALARVIFISDLWGRLN | -1.85 |
| HMALPPPELRGATGEAVTALRPAGIALIQGKRYDVLAEGGEWIAAGAAVRVRDIRNGHLIVSDA | -0.268 |
| HMALRFMAYGRINGTNVHFRTGASASTASLGRYSRGTEFGVYDKIGGWYRVRLLSTGQEGYVYSRYLTLTG | -2.53 |
| HMALSGTVQNFAGGIMILIFRPFKTGDYIEALGYFGKVSEVNIVSTKLRTFDNKTIILPNGALSNGNIQNY | -0.772 |
| HMALSSQQIKDMQSWYGTKADGIWGSKSTTAAGGRDAGAAYSLYSSNKGRYSSYTDYMSYGGG | 0.341 |

| Sequence | soluble fraction (log2) |
| --- | --- |
| HMALSTRERMSFVLEVLKEKEFIPFVDLFSPEEGRAGVVVTFLALMELMKDSLIEIVQTKNFGEIHVRARL | -0.316 |
| HMALTQEQLGQRLQDARKSVALTQQEVAEDLGLSRESLAQIEAGSRSVNSLEIVRLARLYGRSLSSILLE | -0.893 |
| HMALYSEQVSEIEKALMSLPPKYQLVMLLLYAEDLKYEQIAEILDEPIGTVKTKIHRARKILKERF | -0.147 |
| HMAMDSGELEAIVDRLISEHPDDWAALTAGDDRERKKKSGFFVGEVMKATRGQADGRAVIELLASRSA | -0.0771 |
| HMAMDYTVVHSDRRTIAIQIQRDGRVVVRAPYAATAEDIRRVVDSHRDWVEKTVRRQQEQLAAS | -0.985 |
| HMAMNITQRHQEILAVIKQEKHITVSEISKLLGVSEVTIRKDFNYLEEKNLIYRHHGGASLNN | -2.78 |
| HMAMPQPVARALHRLGQDISAARRMRRLSQEDLAQRIGTSLSTVRRMEDGYPGTALHTFLRALHML | -0.552 |
| HMAMSDFDALSNRISTLSQGRASAVRMKDGIVSLVLDIGGLSAEERKAMTAAIEGEGRGYPSVTQVRILET | -0.15 |
| HMANAGKFDSDMGEKINFPGNRVSLTPSELEAARELAAIMGDRFFSQLIPTTSKVTVTEMLQSLK | 0.745 |
| HMANGTVKWFNTTKGFGFIAPETGGKDVFVHISAVERSGLTGLADDQKVTFDVEAGRDGRESAVNLAL | 0.0695 |
| HMANKTVPNVSGKTVAEARAIIENQSLQVGEEKEEYSDSVAEGYIIRTNPTAGSQKKEQSKIDLVVSKG | 0.128 |
| HMANLDSLIKKVGQYAKDKQSISVDGIKKDLSIDKDMVKEALAELLKIGVVDKPDEAGQYKVIM | 0.51 |
| HMANPMFAEIKKVQKQLNEMGYQAGPADGLWGNKTENAVKLLLSDNNLKWDGTFDQNEIKIIEEIFLSND | -0.241 |
| HMANPRLEYFLSNITPDWNEFSPELKNQLLIENADPYKLEQYILQVSPDMYIEEQNAPGTVRQMAGDITG | 0.137 |
| HMANSANARKSLVSKLIAGGKIASQSDLVKALKKQGIVVTQGTASRDLEDIGAIRVRNSEGEIVYALT | 0.0457 |
| HMANSDEEVLNKISTKAPTFNELINKIKEFDDTKEINDIWLDVYRYYITDEEYKEIAKKVITGLTYTNQ | -0.386 |
| HMANSLLVTAQAGGQKLFNFLKRSLHAENNEIHRWIRTGQVRINKKRTKAFDIVHENDEIRIPPFALNR | -0.444 |
| HMANSREIPKLAGIEQEEAVKQLLDLDLKPVIEEITDDDTDAGDVVRTDPAAGEHVAVDTEITVFISIG | -0.987 |
| HMANVQLAKNLKTLRKKYNYTQQDVSTFLNITRQAYSHYEQALREPDLNTLVHLSRFYQVTLDELI | -4.33 |
| HMANYHDIAADLRSKINHGFYEEEKKLPKQSELAADYQTSRVTIQKALNILQMEGIIYGKKGTGTFIRDSY | -0.32 |
| HMANYTVNAYNNGGTGGSVNMRSGPSTNDGIVVRVPHGATVTGTKSGTWSYMTYNTYTGYMMSVYLDEQS | -1.57 |
| HMAPAPYLVKVTANKLNIRSGPGTNYKIQGAITDKGTYTIVDTQGRWGKLKSGAGWIYLNYTKK | -1.98 |
| HMAPASADQLIDQLNEKVKAKDDKGVAALLTAAQTKMAELAQKDPKEAQAYVAKLQQWMQSNSENIKAALK | 0.439 |
| HMAPAYELTEEETKIIEILKANENIDLNELKSQAALSGKKWDKSMKNLAKYNLTKVTVDGDAKTVAYLA | 0.164 |
| HMAPELSGEKLWDAQDVAMFLRVKPTTVWSYVSRDGFPAPVSQAGRAGMWSEPLVVQWYLSRPG | 0.154 |
| HMAPEPFILSVDADGKYYIDDLEKTKQEILIYATALYQEKPTTDFLVRGDKSAAYNDVLQAMVVLKE | 0.325 |
| HMAPETALQILEQIQINPKVTMTDLANLTGYSRRWVAQTMKQLQELNVIKRVGSTKTGYWEIIA | -0.576 |
